“And” between values parts separate entries of the source, which are not always exact repeats. Equal entries are not always repeated.
Target: the molecule itself
Assay: SEC; oligomeric forms of the separately purified proteins; Superdex 200 Increase 10/300 GL, 20 mM HEPES pH 7.5, 150 mM NaCl, 1 mM DTT (Fig. S1, A and B)

B1: Get3(D57N), Saccharomyces cerevisiae (enzyme, S. cerevisiae, UniProt Q12154 1-354, looked up)
chain: MDLTVEPNLHSLITSTTHKWIFVGGKGGVGKTTSSCSIAIQMALSQPNKQFLLISTNPAHNLSDAFGEKFGKDARKVTGMNNLSCMEIDPSAALKDMNDMAVSRANNNGSDGQGDDLGSLLQGGALADLTGSIPGIDEALSFMEVMKHIKRQEQGEGETFDTVIFDTAPTGHTLRFLQLPNTLSKLLEKFGEITNKLGPMLNSFMGAGNVDISGKLNELKANVETIRQQFTDPDLTTFVCVCISEFLSLYETERLIQELISYDMDVNSIIVNQLLFAENDQEHNCKRCQARWKMQKKYLDQIDELYEDFHVVKMPLCAGEIRGLNNLTKFSQFLNKEYNPITDGKVIYELEDKE
notes: Get3, S. cerevisiae, UniProt Q12154, full length, with D57N; Purified in dimeric and tetrameric forms; the dimer was used to form the complex with Get4/5; ATP and MgCl2 were present in the complex, cryo-EM and MST samples; also called D57N variant; ATPase-deficient D57N variant; source: E. coli Rosetta (DE3), purified (Ni-NTA, SEC)
stoichiometry N: 2 and 4
